Source: US20260250338A1
Values belong to the substance of their own block, whether it stands above or below them.

Columns and labels:
[1] = molecular target: full length human CD16b stably expressed on transduced WT Jurkat cells (human) (UniProt O75015); experiment: flow cytometry on CD16b-transduced WT Jurkat cells stained with anti-CD16 (axis printed VL1-A :: CD16-eFluor 450-A)
[2] = molecular target: HER2 on SKOV3 cells (human) (UniProt P04626); experiment: flow cytometry on SKOV3 cells, anti-HER2 PerCP/Cy5.5 at 1:20
[3] = molecular target: HER2 on JIMT-1 cells (human) (UniProt P04626); experiment: flow cytometry on JIMT-1 cells, anti-HER2 PerCP/Cy5.5 at 1:20
[4] = molecular target: HER2 on HT29 cells (human) (UniProt P04626); experiment: flow cytometry on HT29 cells, anti-HER2 PerCP/Cy5.5 at 1:20
[5] = molecular target: HER2 on MDA-MB-175 cells (human) (UniProt P04626); experiment: flow cytometry on MDA-MB-175 cells, anti-HER2 PerCP/Cy5.5 at 1:20
[6] = molecular target: HER2 on MDA-MB-231 cells (human) (UniProt P04626); experiment: flow cytometry on MDA-MB-231 cells, anti-HER2 PerCP/Cy5.5 at 1:20
[7] = molecular target: HER2 on SKOV3 cells (human) (UniProt P04626); experiment: flow cytometry on SKOV3 cells, isotype ctrl PerCP/Cy5.5
[8] = molecular target: HER2 on JIMT-1 cells (human) (UniProt P04626); experiment: flow cytometry on JIMT-1 cells, isotype ctrl PerCP/Cy5.5
[9] = molecular target: HER2 on HT29 cells (human) (UniProt P04626); experiment: flow cytometry on HT29 cells, isotype ctrl PerCP/Cy5.5
[10] = molecular target: HER2 on MDA-MB-175 cells (human) (UniProt P04626); experiment: flow cytometry on MDA-MB-175 cells, isotype ctrl PerCP/Cy5.5
[11] = molecular target: HER2 on MDA-MB-231 cells (human) (UniProt P04626); experiment: flow cytometry on MDA-MB-231 cells, isotype ctrl PerCP/Cy5.5

full length human CD16b stably expressed on transduced WT Jurkat cells (human), sequence (O75015 17-200): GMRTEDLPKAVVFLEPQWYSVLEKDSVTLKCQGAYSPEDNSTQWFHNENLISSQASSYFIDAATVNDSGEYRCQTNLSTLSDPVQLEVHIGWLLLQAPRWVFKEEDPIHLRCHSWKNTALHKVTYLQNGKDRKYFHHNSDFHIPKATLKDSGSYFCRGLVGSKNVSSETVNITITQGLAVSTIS

CD16 gate (percent of cells) [1]: 100
Substance: CD16-BV421 (BV421 mouse anti-human CD16 clone 3G8, BD Biosciences) (antibody)

Median : BL3-A [2]: 25400
Median : BL3-A [3]: 10300
Median : BL3-A [4]: 2230
Median : BL3-A [5]: 6860
Median : BL3-A [6]: 1240
Substance: HER2 (Anti-Her2 PerCP/Cy5.5, BioLegend #324416) (antibody)

Median : BL3-A [7]: 491
Median : BL3-A [8]: 306
Median : BL3-A [9]: 361
Median : BL3-A [10]: 331
Median : BL3-A [11]: 520
Substance: iso ctrl (Isotype ctrl PerCP/Cy5.5 antibody)
